Read-outs that look alike come from different tables or passages of the source.
System: SARS-CoV-2

B1: pegylated interferon lambda-1a (protein)
chain: MKPTTTGKGCHIGRFKSLSPQELASFKKARDALEESLKLKNWSCSSPVFPGNWDLRLLQVRERPVALEAELALTLKVLEAAAGPALEDVLDQPLHTLHHILSQLQACIQPQPTAGPRPRGRLHHWLHRLQEAPKKESAGCLEASVTFNLFRLLTRDLKYVADGNLSLRTSTHPEST
modifications: PEG
notes: 180 mcg subcutaneous injection
risk reduction by dominant variant (August 2021 to December 2021, Delta predominant): 46% | risk reduction by dominant variant (December 2021 to February 2022, Omicron dominant): 83% | # events (variant analysis) (Full Study, June 2021-February 2022, N 916): 916 (25) | risk reduction by dominant variant (June 2021 to August 2021, Gamma predominant): 25% | HR, all-cause mortality or hospitalization due to COVID-19, Time-to-Event analysis (human, in vivo): 0.00 | RR, all-cause mortality or hospitalization due to COVID-19 (human, in vivo): 0.14 | estimated effect across variants (human, in vivo): beneficial across all variants | efficacy across SARS-CoV-2 variants (viral sequencing on all patients): pan-variant efficacy in all variants tested, including omicron

Source: patent US20230201308A1, “TREATMENT OF CORONAVIRUS INFECTION WITH […]” (Eiger Biopharmaceuticals, Inc., priority 2020, published 2023)
